In patent US20240191241, “APTAMERS FOR USE IN THE […] OF CORONAVIRIDAE INFECTIONS” (Berlin Cures GmbH, published 2024):

Key:
[1] = target: T1, SARS-CoV-2 spike receptor-binding domain peptide No. 4 (YRLFRK) (SARS-CoV-2); assay: NMR; quadruplex imino signals induced by peptide; 1 mM each, 90/10 H2O/D2O, 298 K, no additives; conditions: tags: isolated peptide; G4
T1 chain: YRLFRK

[2] = target: T2, SARS-CoV-2 RNA-dependent RNA polymerase peptide HRFYRLAN (SARS-CoV-2); assay: ITC; 1:1 stoichiometry; 50 mM sodium phosphate, 150 mM NaCl, pH 7.06, 25 C; quadruplex induction also by NMR; Kd not given; conditions: tags: isolated peptide; G4
T2 chain: HRFYRLAN

[3] = target: T3, SARS-CoV-2 RNA-dependent RNA polymerase peptide LYRNRDV (SARS-CoV-2); assay: NMR; quadruplex fold induced by peptide; 90/10 H2O/D2O, 298 K; conditions: tags: isolated peptide; G4
T3 chain: LYRNRDV

[4] = target: T4, SARS-CoV-2 spike receptor-binding domain control peptide NRKRISN (SARS-CoV-2); assay: NMR: nearly complete absence of quadruplex formation; also used as control in ITC (50 mM sodium phosphate, 150 mM NaCl, pH 7.16, 25 C); conditions: tags: isolated peptide; G4
T4 chain: NRKRISN

[5] = target: Thrombin (Homo sapiens, UniProt P00734;P00734 P00734:328-363,P00734:364-622); assay: ELONA

GGTTGGTGTGGTTGG (ssDNA) [BC007]
binding result [1]: binds
binding result [2]: binds
binding result [3]: binds
binding result [4]: no binding

GGTTGGTGTGGTTGG (ssDNA) [BC007 5'-biotinylated]
binding result [5]: binds
